Article PMC3285296
Values belong to the molecule of their own block, whether it stands above or below them.

Experiments:
Assay in all cases: co-IP
[1] = biological target: Flag-tagged glycogen phosphorylase (GP), wild type (human) (UniProt P06737)
[2] = biological target: Flag-tagged glycogen phosphorylase K470Q/K796Q (GP^K2Q) (human) (UniProt P06737)
[3] = biological target: Flag-tagged glycogen phosphorylase (GP), wild type (human) (UniProt P06737); remark: listed apart in the source

increase of the co-precipitate with NAM+TSA against untreated cells [1]: > 100%
PP1α co-immunoprecipitated, against wild type GP [2]: 2 fold
Molecule: HA-tagged protein phosphatase 1 alpha (HA-PP1α) (from UniProt P62136 1-330) (enzyme)

increase of the co-precipitate in 25 mM glucose against glucose free medium [3]: 100%
B1: HA-tagged hepatic glycogen binding subunit GL of PP1 (HA-GL) (natural protein)
chain: MMAVDIEYRYNCMAPSLRQERFAFKISPKPSKPLRPCIQLSSKNEASGMVAPAVQEKKVKKRVSFADNQGLALTMVKVFSEFDDPLDMPFNITELLDNIVSLTTAESESFVLDFSQPSADYLDFRNRLQADHVCLENCVLKDKAIAGTVKVQNLAFEKTVKIRMTFDTWKSYTDFPCQYVKDTYAGSDRDTFSFDISLPEKIQSYERMEFAVYYECNGQTYWDSNRGKNYRIIRAELKSTQGMTKPHSGPDLGISFDQFGSPRCSYGLFPEWPSYLGYEKLGPYY
